Columns and labels:
TLR4 [1] = molecular target: T1, TLR4 (Homo sapiens, UniProt O00206+Q9Y6Y9); details: positive control; stated as known; cited from earlier work
T1 construct: alginate cultures of human chondrocytes from healthy volunteers were supplied by Articular Engineering, LLC; host or cells: primary human chondrocytes in alginate culture (healthy volunteers; osteoarthritis patients)

TLR4 [2] = molecular target: T1, TLR4; experiment: 35S incorporation into S-GAG in alginate cultures of human chondrocytes from osteoarthritis patients; assay type: cell-based
Description: For these experiments, alginate cultures of human chondrocytes from healthy volunteers were supplied by Articular Engineering, LLC (Northbrook, Ill.) and were maintained as directed by the supplier. “Control” chondrocytes were untreated. “LPS” treated chondrocytes were treated with LPS at a concentration of 1 μg/ml in the media for three days starting at Day 2. “LPS+polymixin B” treated chondrocytes were treated for 1 hour with the […] polymixin B, which is a TLR4 antagonist, at a concentration of 20 μg/ml followed by treatment with the TLR4 receptor agonist LPS at a concentration of 1 μg/ml in the media for three days starting at Day 2. […] On Day 5 alginate bead chondrocyte cell cultures were ^35S labelled overnight and ^35S incorporation into S-GAG (sulfated glycosaminoglycan) was then determined as described by Bobacz et al. 56 Arthritis. […]
For these experiments, alginate cultures of human chondrocytes from osteoarthritis patients were supplied by Articular Engineering, LLC (Northbrook, Ill.) and were maintained as directed by the supplier. […] At Day 5 alginate bead chondrocyte cell cultures were ^35S labelled overnight and ^35S incorporation into S-GAG (sulfated glycosaminoglycan) was then determined as described by Bobacz et al. 56 Arthritis. […]

TLR4 [3] = molecular target: T1, TLR4; experiment: 35S incorporation into S-GAG in alginate cultures of human chondrocytes from healthy volunteers; assay type: cell-based
Description: For these experiments, alginate cultures of human chondrocytes from healthy volunteers were supplied by Articular Engineering, LLC (Northbrook, Ill.) and were maintained as directed by the supplier. “Control” chondrocytes were untreated. “LPS” treated chondrocytes were treated with LPS at a concentration of 1 μg/ml in the media for three days starting at Day 2. “LPS+polymixin B” treated chondrocytes were treated for 1 hour with the […] polymixin B, which is a TLR4 antagonist, at a concentration of 20 μg/ml followed by treatment with the TLR4 receptor agonist LPS at a concentration of 1 μg/ml in the media for three days starting at Day 2. “LPS+TLR4-ECD” treated chondrocytes were treated starting at Day 0 with the TLR4 antagonist TLR4-ECD at a concentration in the media of 50 μg/ml followed by treatment with LPS at a concentration of 1 μg/ml in the media for three days starting at Day 2. TLR4-ECD is a TLR4 receptor antagonist comprising the extracellular domain of hTLR4A and the Fc domain of an IgG1 isotype antibody. TLR4-ECD has the amino acid sequence shown in SEQ ID NO: 4 and is encoded by the cDNA having the nucleic acid sequence shown in SEQ ID NO: 3. […] On Day 5 alginate bead chondrocyte cell cultures were ^35S labelled overnight and ^35S incorporation into S-GAG (sulfated glycosaminoglycan) was then determined as described by Bobacz et al. 56 Arthritis. […]

T1 sequence (O00206 24-839): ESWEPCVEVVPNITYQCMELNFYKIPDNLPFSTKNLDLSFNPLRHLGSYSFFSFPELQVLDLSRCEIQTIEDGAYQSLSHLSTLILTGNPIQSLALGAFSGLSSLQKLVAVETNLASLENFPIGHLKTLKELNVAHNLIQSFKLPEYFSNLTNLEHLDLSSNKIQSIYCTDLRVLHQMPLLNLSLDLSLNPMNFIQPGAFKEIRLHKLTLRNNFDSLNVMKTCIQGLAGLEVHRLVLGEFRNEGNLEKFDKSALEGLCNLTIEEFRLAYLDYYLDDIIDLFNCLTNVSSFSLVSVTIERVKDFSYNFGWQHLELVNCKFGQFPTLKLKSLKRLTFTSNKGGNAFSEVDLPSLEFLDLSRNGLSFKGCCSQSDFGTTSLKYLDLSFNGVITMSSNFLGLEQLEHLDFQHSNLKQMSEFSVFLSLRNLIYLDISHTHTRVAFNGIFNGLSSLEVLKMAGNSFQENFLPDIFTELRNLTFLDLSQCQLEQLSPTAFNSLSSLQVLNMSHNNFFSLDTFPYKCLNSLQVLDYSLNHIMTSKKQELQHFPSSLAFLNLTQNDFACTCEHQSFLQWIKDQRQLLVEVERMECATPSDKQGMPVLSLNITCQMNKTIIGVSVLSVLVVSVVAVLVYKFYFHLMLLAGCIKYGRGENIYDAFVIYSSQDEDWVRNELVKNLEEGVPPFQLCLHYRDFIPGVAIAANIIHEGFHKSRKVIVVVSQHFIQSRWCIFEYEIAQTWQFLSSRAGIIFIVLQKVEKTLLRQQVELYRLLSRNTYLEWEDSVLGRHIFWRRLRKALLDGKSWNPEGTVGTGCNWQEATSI
T1 sequence (Q9Y6Y9 17-160 limits assumed): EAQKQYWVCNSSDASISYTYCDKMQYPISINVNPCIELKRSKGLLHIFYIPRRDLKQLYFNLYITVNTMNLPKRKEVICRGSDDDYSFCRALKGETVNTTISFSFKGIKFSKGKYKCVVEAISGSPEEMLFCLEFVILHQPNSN

Row | Substance | sGAG synthesis by human chondrocytes (TLR4 [1]) | S-GAG synthesis (TLR4 [2]; hTLR4-ECD 50 μg/ml from Day 0 + LPS 1 μg/ml from Day 2, relative to LPS alone (FIG. 19)) | S-GAG synthesis (TLR4 [2]; hTLR4-ECD alone 50 μg/ml from Day 0, relative to LPS alone (FIG. 19)) | S-GAG synthesis (TLR4 [3]; hTLR4-ECD 50 μg/ml from Day 0 + LPS 1 μg/ml from Day 2, relative to LPS alone (FIG. 18)) | S-GAG synthesis (TLR4 [3]; hTLR4-ECD alone 50 μg/ml from Day 0, relative to LPS alone (FIG. 18))
1 | IGF1: Insulin-like Growth Factor 1, used as a positive control | stimulate sGAG synthesis |  |  |  | 
2 | hTLR4-ECD: TLR4 receptor antagonist comprising the extracellular domain of hTLR4A and the Fc domain of an IgG1 isotype antibody; preparations contained approximately 25% MD2 |  | increased S-GAG synthesis relative to chondrocytes from osteoarthritis patients treated with LPS alone | increased S-GAG synthesis relative to chondrocytes from osteoarthritis patients treated with LPS alone | increased S-GAG synthesis relative to chondrocytes treated with LPS alone | increased S-GAG synthesis relative to chondrocytes treated with LPS alone

— patent US20090136509A1, “Use of Toll-Like Receptor 4 Antagonists for the Treatment or Prevention of Osteoarthritic Conditions” (priority 2007, published 2009)
